Source: patent US20200277385A1 (LABORATOIRE FRANCAIS DU FRACTIONNEMENT ET DES …, published 2020)

Key:
[1] = target: T1, CD303 ectodomain (human, UniProt Q8WTT0 45-213); assay: ELISA on coated CD303 ectodomain, 5 ng/mL antibody
T1 construct: also called ectodomain of the human CD303 antigen
T1 sequence: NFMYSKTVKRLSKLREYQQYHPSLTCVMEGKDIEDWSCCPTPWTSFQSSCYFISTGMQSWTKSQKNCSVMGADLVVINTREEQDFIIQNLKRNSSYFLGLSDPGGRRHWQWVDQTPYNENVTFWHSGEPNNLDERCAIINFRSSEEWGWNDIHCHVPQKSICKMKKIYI
Procedure: This technique, which uses a colorimetric approach, makes it possible to detect and visualize antigen-antibody interactions. The principle of ELISA is, first, to coat each well of a MaxiSorp plate with 10 ng of the antigen, in this case the CD303 ectodomain. The latter was purchased from the supplier Mybiosource. Second, the various antibodies produced, contained in the supernatant, are all diluted to the same concentration, and contacted with the antigen to allow them to bind. A third step consists in adding the secondary antibodies, HRP-conjugated anti-human antibody, necessary for amplified detection of the antigen-binding of the anti-CD303 antibodies. Lastly, detection is carried out using a solution containing the substrate for the enzyme (3,3′,5,5′-tetramethylbenzidine, or TMB). The appearance of coloring of the substrate indicates the formation of the antigen-antibody complex. The intensity of this coloring is proportional to the amount of enzyme present and thus to the amount of antibody tested bound to the antigen. The reaction is stopped by adding H₂SO₄ (acid). These colors are read using a spectrophotometer at a wavelength of 450 nm.
A concentration of 5 ng/mL is used to classify the humanized antibodies (FIG. 10).

[2] = target: T2, human CD303 antigen expressed on cells (human, UniProt Q8WTT0 1-213); assay: cell-based or functional assay
T2 sequence: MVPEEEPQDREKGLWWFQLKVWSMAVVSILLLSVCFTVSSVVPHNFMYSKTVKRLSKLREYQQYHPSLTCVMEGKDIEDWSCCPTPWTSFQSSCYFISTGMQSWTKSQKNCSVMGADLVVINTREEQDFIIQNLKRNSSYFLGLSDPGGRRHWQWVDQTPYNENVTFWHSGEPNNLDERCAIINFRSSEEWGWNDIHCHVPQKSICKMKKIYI

[3] = target: T2, human CD303 antigen expressed on cells; assay: flow cytometry on CAL-1 cells
Procedure: (§1) The CD303-expressing cells and the antibodies are prepared in diluent (PBS+1% FCS). 1·10⁵ cells are incubated at 4° C. for 30 minutes with 100 μL of antibody (anti-CD303 or negative control) at various concentrations (0-40 μg/mL, final concentration).
(§2) After washing with the diluent, the antibodies are visualized by addition of a phycoerythrin (PE)-coupled goat anti-mouse IgG F(ab′)₂ fragment (100 μL diluted to 1:100 in the diluent) for 45 minutes at 4° C. The cells are then washed and analyzed by flow cytometry (FC500, Beckman Coulter).

[4] = target: T2, human CD303 antigen expressed on cells; assay: flow cytometry on Fcγ chain-CD303 Jurkat cells
Procedure: as §1, §2

[5] = target: T3, FcγRIIIa (CD16a) (UniProt P08637 17-254, limits assumed); assay: competition with 3G8-PE for CD16 on NK cells, flow cytometry
T3 construct: whole, on cells; also called Fcγ receptor III

[6] = target: T2, human CD303 antigen expressed on cells; assay: cell-based or functional assay; remark: listed apart in the source
[7] = target: T3, FcγRIIIa (CD16a); assay: cell-based or functional assay
[8] = target: T2, human CD303 antigen expressed on cells; assay: flow cytometry on CAL-1 cells, 0.1 µg/mL, supernatant
Procedure: The line used to carry out this technique, CAL-1, is a leukemic cell line of plasmacytoid dendritic cells obtained from a BPDCN patient. The antibodies produced were tested in supernatant, but also in forms purified by affinity chromatography with protein A-sepharose (not elaborated upon herein).
For cell staining, the cells and the antibodies are prediluted with PBS/1% FCS. In a 100 μL reaction volume, 1·10⁵ cells are incubated at 4° C. for 30 minutes with the anti-CD303 antibodies to be tested, at two concentrations: 0.1 μg/mL or 1 μg/mL. This incubation is followed with several washings. The cell/antibody complexes thus formed are then contacted for 30 minutes at 4° C. with the secondary antibody diluted 1:50, an anti-human IgG Fc F(ab′)₂ coupled to a fluorochrome, phycoerythrin. […] Various negative controls are used to eliminate possible nonspecific binding, such as: the cells alone or directly in contact with the secondary antibody, or replacing the antibody tested with an irrelevant chimeric antibody (factor VIII anti-idiotype).

T3 sequence (P08637 17-254 limits assumed): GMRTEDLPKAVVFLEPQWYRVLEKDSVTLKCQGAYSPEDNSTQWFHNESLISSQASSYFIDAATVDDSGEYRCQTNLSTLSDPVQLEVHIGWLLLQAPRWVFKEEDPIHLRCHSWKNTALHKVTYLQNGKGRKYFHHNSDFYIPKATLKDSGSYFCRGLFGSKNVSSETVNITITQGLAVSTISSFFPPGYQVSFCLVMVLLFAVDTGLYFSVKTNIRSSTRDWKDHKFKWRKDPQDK

B1: humanized antibody 102E9H10 (antibody, human IgG1, kappa, V domains shown)
VH: QIHLVQSGPELKKPGESVKISCKASGYTFTDYSMHWVRQAPGQGLKWMGWINTETGEPTYAQDFKGRFVFSLDTSVSTAYLQINSLKNEDTSTYYCTRNGYYVGYYAMDYWGQGTSVTVSS
VL: QIQLTQSPSFLSASPGERVTITCSASSSVIYIHWFQQKPGTAPKLWIYSTSYLASGVPSRFSGSGSGTSYTLTISRMEAEDFATYYCQQRRSYPFTFGGGTKLEIKR
CD303 ectodomain-binding capacity relative to chimeric antibody 102E9 [1]: 80%

B2: humanized antibody 102E9H9 (antibody, human IgG1, kappa, V domains shown)
VH: QIHLVQSGPELKKPGESVKISCKASGYTFTDYSMHWVKQAPGQGLKWMGWINTETGEPTYADDFKGRFVFSLDTSVSTAYLQINSLKNEDTSTYYCTRNGYYVGYYAMDYWGQGTSVTVSS
VL: QIQLTQSPSFLSASPGERVTITCSASSSVIYIHWFQQKPGTAPKLWIYSTSYLASGVPSRFSGSGSGTSYTLTISRMEAEDFATYYCQQRRSYPFTFGGGTKLEIKR
CD303 ectodomain-binding capacity relative to chimeric antibody 102E9 [1]: 71%

B3: humanized antibody 102E9H6 (antibody, human IgG1, kappa)
heavy: not shown
light: QIQLTQSPSFLSASPGERVTITCSASSSVIYIHWFQQKPGKAPKLWIYSTSYLASGVPSRFSGSGSGTEYTLTISSMEAEDFATYYCQQRRSYPFTFGGGTKLEIKRTVAAPSVFIFPPSDEQLKSGTASVVCLLNNFYPREAKVQWKVDNALQSGNSQESVTEQDSKDSTYSLSSTLTLSKADYEKHKVYACEVTHQGLSSPVTKSFNRGEC
CD303 ectodomain-binding capacity relative to chimeric antibody 102E9 [1]: 73%

B4: humanized antibody 102E9H7 (antibody, human IgG1, kappa)
heavy: not shown
light: QIQLTQSPSFLSASPGERVTITCSASSSVIYIHWFQQKPGKAPKLWIYSTSYLASGVPSRFSGSGSGTEYTLTISSMEAEDFATYYCQQRRSYPFTFGGGTKLEIKRTVAAPSVFIFPPSDEQLKSGTASVVCLLNNFYPREAKVQWKVDNALQSGNSQESVTEQDSKDSTYSLSSTLTLSKADYEKHKVYACEVTHQGLSSPVTKSFNRGEC
CD303 ectodomain-binding capacity relative to chimeric antibody 102E9 [1]: 76%

B5: chimeric antibody 104E10 (antibody, human IgG1, kappa)
heavy: not shown
light: QIVLTQSPAIMSASPGEKVTMTCSASSSVIYMHWFQQKPGTSPKLWIYSTSNLASGVPARFSGSGSGTSYSLTISRMEAEDAATYYCQQRRSYPYTFGGGTKLEIKRTVAAPSVFIFPPSDEQLKSGTASVVCLLNNFYPREAKVQWKVDNALQSGNSQESVTEQDSKDSTYSLSSTLTLSKADYEKHKVYACEVTHQGLSSPVTKSFNRGEC
notes: Produced in YB2/0
ADCC EC50, Fcγ chain-CD303 Jurkat target cells with NK cells [2]: 0.00828 mg/L | ADCC Emax (% lysis), Fcγ chain-CD303 Jurkat target cells with NK cells [2]: 40.5 % lysis | Bmax (MFI) [3]: 29.2 MFI | EC50 [3]: 1.93 mg/L | Bmax (MFI) [4]: 23.7 MFI | EC50 [4]: 6.06 mg/L | IC50 [5]: 18.1 mg/L

B6: chimeric antibody 114D11 (antibody, human IgG1, kappa)
heavy: not shown
light: QIVLTQSPAIMSASPGEKVTITCSASSSVFYMHWFQQKPGTSPKLWIYSTSNLASGVPARFSGSGSGTSYSLTISRMEAEDAATYYCQQRRSYPYTFGGGTKLEIKRTVAAPSVFIFPPSDEQLKSGTASVVCLLNNFYPREAKVQWKVDNALQSGNSQESVTEQDSKDSTYSLSSTLTLSKADYEKHKVYACEVTHQGLSSPVTKSFNRGEC
notes: Produced in YB2/0
ADCC EC50, Fcγ chain-CD303 Jurkat target cells with NK cells [2]: 0.00361 mg/L | ADCC Emax (% lysis), Fcγ chain-CD303 Jurkat target cells with NK cells [2]: 37.4 % lysis | Bmax (MFI) [3]: 30.1 MFI | EC50 [3]: 1.7 mg/L | Bmax (MFI) [4]: 24.7 MFI | EC50 [4]: 3.98 mg/L | IC50 [5]: 45 mg/L

B7: humanized antibody 122A2H5 (antibody, human IgG1, kappa)
heavy: not shown
light: DIQMTQSTSSLSASLGDRVTITCQASQDISNYLNWYQQKPDGTVKLLIYYTSRLHTGVPSRFSGSGSGTDYSLTISNLDQEDIATYYCQQGNTLPWTFGGGTKLEIKRTVAAPSVFIFPPSDEQLKSGTASVVCLLNNFYPREAKVQWKVDNALQSGNSQESVTEQDSKDSTYSLSSTLTLSKADYEKHKVYACEVTHQGLSSPVTKSFNRGEC
IC50 for IFN-α secretion from pDCs contained in PBMCs [6]: 0.819 ng/mL

B8: humanized antibody 122A2H9 (antibody, human IgG1, kappa)
heavy: not shown
light: DIQMTQSPSSLSASVGDRVTITCQASQDISNYLNWYQQKPDGTVKLLIYYTSRLHTGVPSRFSGSGSGTDYSLTISNLDQEDIATYYCQQGNTLPWTFGGGTKLEIKRTVAAPSVFIFPPSDEQLKSGTASVVCLLNNFYPREAKVQWKVDNALQSGNSQESVTEQDSKDSTYSLSSTLTLSKADYEKHKVYACEVTHQGLSSPVTKSFNRGEC
IC50 for IFN-α secretion from pDCs contained in PBMCs [6]: 0.911 ng/mL | IL-2 secretion by CD16 Jurkat cells: 50%, with ch122A2 = 1 (Mean) [7]: 0.73 ratio to ch122A2 | IL-2 secretion by CD16 Jurkat cells: 50%, with ch122A2 = 1 (experiment 2126 16 057) [7]: 0.66 ratio to ch122A2 | IL-2 secretion by CD16 Jurkat cells: 50%, with ch122A2 = 1 (experiment 2126 16 059) [7]: 0.78 ratio to ch122A2 | IL-2 secretion by CD16 Jurkat cells: 50%, with ch122A2 = 1 (experiment 2126 16 066) [7]: 0.74 ratio to ch122A2

B9: humanized antibody 122A2H7 (antibody, human IgG1, kappa, V domains shown)
VH: QVQLQQSGAEVVKPGASVKISCKGSGYTFTDYSMHWVRQAPGQGLEWIGVISTYYGDSNYNQKFKGKVTMTVDKSSSTAYMELSRLTSDDTAVYYCARNGNFYVMDYWGQGTLVTVSS
VL: DIQMTQSTSSLSASLGDRVTITCQASQDISNYLNWYQQKPDGTVKLLIYYTSRLHTGVPSRFSGSGSGTDYSLTISNLDQEDIATYYCQQGNTLPWTFGGGTKLEIKR
IC50 for IFN-α secretion from pDCs contained in PBMCs [6]: 0.865 ng/mL

B10: humanized antibody 122A2H10 (antibody, human IgG1, kappa, V domains shown)
VH: QVQLQQSGAEVVKPGASVKISCKGSGYTFTDYSMHWVRQAHAKSLEWIGVISTYYGDSNYNQKFKGKVTMTVDTSSSTAYMELSRLRSDDTAVYYCARNGNFYVMDYWGQGTLVTVSS
VL: DIQMTQSPSSLSASVGDRVTITCQASQDISNYLNWYQQKPDGTVKLLIYYTSRLHTGVPSRFSGSGSGTDYSLTISNLDQEDIATYYCQQGNTLPWTFGGGTKLEIKR
IC50 for IFN-α secretion from pDCs contained in PBMCs [6]: 0.947 ng/mL

B11: humanized antibody 122A2H15 (antibody, human IgG1, kappa, V domains shown)
VH: QVQLQQSGAEVVKPGASVKISCKGSGYTFTDYSMHWVRQAPGQGLEWIGVISTYYGDSNYNQKFKGKVTMTVDKSSSTAYMELSRLTSDDTAVYYCARNGNFYVMDYWGQGTLVTVSS
VL: DIQMTQSTSSLSASLGDRVTITCQASQDISNYLNWYQQKPDGTVKLLIYYTSNLHTGVPSRFSGSGSGTDYSLTISNLQQEDIATYYCQQGNTLPWTFGGGTKLEIKR
binding result [8]: binds

B12: humanized antibody 122A2H14 (antibody, human IgG1, kappa, V domains shown)
VH: QVQLQQSGAEVVKPGASVKISCKGSGYTFTDYSMHWVRQAHAKSLEWIGVISTYYGDSNYNQKFKGKVTMTVDTSSSTAYMELSRLRSDDTAVYYCARNGNFYVMDYWGQGTLVTVSS
VL: DIQMTQSTSSLSASLGDRVTITCQASQDISNYLNWYQQKPDGTVKLLIYYTSNLHTGVPSRFSGSGSGTDYSLTISNLQQEDIATYYCQQGNTLPWTFGGGTKLEIKR
binding result [8]: binds

B13: chimeric antibody 104C12 (antibody, human IgG1, kappa)
heavy: not shown
light: DLQMTQTPSSLSASLGDRVTISCRASQDINNYLSWYQEKPDGTFKLLIYYTSRLHSGVPSRFSGSGSGTDYSLTVRNLEQEDIGTYFCQQGKTLPWTFGGGTKLEIRRTVAAPSVFIFPPSDEQLKSGTASVVCLLNNFYPREAKVQWKVDNALQSGNSQESVTEQDSKDSTYSLSSTLTLSKADYEKHKVYACEVTHQGLSSPVTKSFNRGEC
notes: Produced in YB2/0
ADCC EC50, Fcγ chain-CD303 Jurkat target cells with NK cells [2]: 0.000214 mg/L | ADCC Emax (% lysis), Fcγ chain-CD303 Jurkat target cells with NK cells [2]: 41.8 % lysis | Bmax (MFI) [3]: 29 MFI | EC50 [3]: 0.345 mg/L | Bmax (MFI) [4]: 27.7 MFI | EC50 [4]: 0.178 mg/L | IC50 [5]: 26.8 mg/L
